# B1: Speckle-type POZ protein (Homo sapiens), O43791 (parent)
# chain: MSRVPSPPPPAEMSSGPVAESWCYTQIKVVKFSYMWTINNFSFCREEMGEVIKSSTFSSGANDKLKWCLRVNPKGLDEESKDYLSLYLLLVSCPKSEVRAKFKFSILNAKGEETKAMESQRAYRFVQGKDWGFKKFIRRDFLLDEANGLLPDDKLTLFCEVSVVQDSVNISGQNTMNMVKVPECRLADELGGLWENSRFTDCCLCVAGQEFQAHKAILAARSPVFSAMFEHEMEESKKNRVEINDVEPEVFKEMMCFIYTGKAPNLDKMADDLLAAADKYALERLKVMCEDALCSNLSVENAAEILILADLHSADQLKTQAVDFINYHASDVLETSGWKSMVVSHPHLVAEAYRSLASAQCPFLGPPRKRLKQS
# Variants of: B1
# Conditions: with fgfr4_human FGFR4, P22455
row,effect of a mutation on the interaction,Variant
1,with no effect,F133L

# Variants of: B1
# Conditions: with fumh_human FH
row,effect of a mutation on the interaction,Variant
1,with no effect,F133L

# Variants of: B1
# Conditions: with fzr1_human FZR1, Q9UM11
row,effect of a mutation on the interaction,Variant
1,with no effect,F133L

# Variants of: B1
# Conditions: with gbra6_human GABRA6, Q16445
row,effect of a mutation on the interaction,Variant
1,with no effect,F133L

# Variants of: B1
# Conditions: with gata1_human GATA1, P15976
row,effect of a mutation on the interaction,Variant
1,with no effect,F133L

# Variants of: B1
# Conditions: with p66b_human GATAD2B
row,effect of a mutation on the interaction,Variant
1,with no effect,F133L

# Variants of: B1
# Conditions: with gna11_human GNA11, P29992
row,effect of a mutation on the interaction,Variant
1,with no effect,F133L

# Variants of: B1
# Conditions: with gna13_human GNA13, Q14344
row,effect of a mutation on the interaction,Variant
1,with no effect,F133L

# Variants of: B1
# Conditions: with gnaq_human GNAQ
row,effect of a mutation on the interaction,Variant
1,with no effect,F133L

# Variants of: B1
# Conditions: with grm1_human GRM1, Q13255
row,effect of a mutation on the interaction,Variant
1,with no effect,F133L

# Variants of: B1
# Conditions: with grm3_human GRM3, Q14832
row,effect of a mutation on the interaction,Variant
1,with no effect,F133L

# Variants of: B1
# Conditions: with gsk3b_human GSK3B
row,effect of a mutation on the interaction,Variant
1,with no effect,F133L

# Variants of: B1
# Conditions: with gtpb4_human GTPBP4, Q9BZE4
row,effect of a mutation on the interaction,Variant
1,with no effect,F133L

# Variants of: B1
# Conditions: with h33_human H3-3A
row,effect of a mutation on the interaction,Variant
1,with no effect,F133L

# Variants of: B1
# Conditions: with hdac1_human HDAC1, Q13547
row,effect of a mutation on the interaction,Variant
1,with no effect,F133L

# Variants of: B1
# Conditions: with hdac3_human HDAC3, O15379
row,effect of a mutation on the interaction,Variant
1,with no effect,F133L

# Variants of: B1
# Conditions: with hgf_human HGF
row,effect of a mutation on the interaction,Variant
1,with no effect,F133L

# Variants of: B1
# Conditions: with h31_human H3C1, P68431
row,effect of a mutation on the interaction,Variant
1,with no effect,F133L

# Variants of: B1
# Conditions: with hlab_human HLA-B
row,effect of a mutation on the interaction,Variant
1,with no effect,F133L

# Variants of: B1
# Conditions: with hnf1a_human HNF1A
row,effect of a mutation on the interaction,Variant
1,with no effect,F133L

# Variants of: B1
# Conditions: with igf1r_human IGF1R
row,effect of a mutation on the interaction,Variant
1,with no effect,F133L

# Variants of: B1
# Conditions: with il7ra_human IL7R
row,effect of a mutation on the interaction,Variant
1,with no effect,F133L

# Variants of: B1
# Conditions: with int12_human INTS12, Q96CB8
row,effect of a mutation on the interaction,Variant
1,with no effect,F133L

# Variants of: B1
# Conditions: with ist1_human IST1, P53990
row,effect of a mutation on the interaction,Variant
1,with no effect,F133L

# Variants of: B1
# Conditions: with jak3_human JAK3, P52333
row,effect of a mutation on the interaction,Variant
1,with no effect,F133L

# Variants of: B1
# Conditions: with kat2a_human KAT2A
row,effect of a mutation on the interaction,Variant
1,with no effect,F133L

# Variants of: B1
# Conditions: with kdm5a_human KDM5A
row,effect of a mutation on the interaction,Variant
1,with no effect,F133L

# Variants of: B1
# Conditions: with kdm5c_human KDM5C
row,effect of a mutation on the interaction,Variant
1,with no effect,F133L

# Variants of: B1
# Conditions: with kdm6a_human KDM6A
row,effect of a mutation on the interaction,Variant
1,with no effect,F133L

# Variants of: B1
# Conditions: with vgfr2_human KDR
row,effect of a mutation on the interaction,Variant
1,with no effect,F133L

# Variants of: B1
# Conditions: with lims1_human LIMS1, P48059
row,effect of a mutation on the interaction,Variant
1,with no effect,F133L

# Variants of: B1
# Conditions: with maga6_human MAGEA6, P43360
row,effect of a mutation on the interaction,Variant
1,with no effect,F133L

# Variants of: B1
# Conditions: with m3k1_human MAP3K1, Q13233
row,effect of a mutation on the interaction,Variant
1,with no effect,F133L

# Variants of: B1
# Conditions: with mk10_human MAPK10, P53779
row,effect of a mutation on the interaction,Variant
1,with no effect,F133L

# Variants of: B1
# Conditions: with mk14_human MAPK14, Q16539
row,effect of a mutation on the interaction,Variant
1,with no effect,F133L

# Variants of: B1
# Conditions: with mk03_human MAPK3, P27361
# mk03_human MAPK3, P27361, sequence (P27361 whole entry): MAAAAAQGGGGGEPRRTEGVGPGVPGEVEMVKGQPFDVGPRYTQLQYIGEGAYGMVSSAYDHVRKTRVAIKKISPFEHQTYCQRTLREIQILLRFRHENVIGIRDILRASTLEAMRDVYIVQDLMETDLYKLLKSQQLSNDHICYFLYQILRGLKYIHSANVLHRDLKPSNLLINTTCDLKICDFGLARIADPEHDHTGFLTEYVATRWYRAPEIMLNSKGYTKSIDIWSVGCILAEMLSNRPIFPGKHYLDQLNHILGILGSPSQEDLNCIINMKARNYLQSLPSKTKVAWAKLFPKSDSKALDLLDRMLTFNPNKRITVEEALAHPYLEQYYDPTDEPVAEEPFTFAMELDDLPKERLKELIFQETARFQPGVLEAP
row,effect of a mutation on the interaction,Variant
1,with no effect,F133L

# Variants of: B1
# Conditions: with mk04_human MAPK4, P31152
row,effect of a mutation on the interaction,Variant
1,with no effect,F133L

# Variants of: B1
# Conditions: with mk06_human MAPK6, Q16659
row,effect of a mutation on the interaction,Variant
1,with no effect,F133L

# Variants of: B1
# Conditions: with mk07_human MAPK7, Q13164
row,effect of a mutation on the interaction,Variant
1,with no effect,F133L

# Variants of: B1
# Conditions: with sin1_human MAPKAP1, Q9BPZ7
row,effect of a mutation on the interaction,Variant
1,with no effect,F133L

# Variants of: B1
# Conditions: with mcl1_human MCL1, Q07820
# mcl1_human MCL1, Q07820, sequence (Q07820 whole entry): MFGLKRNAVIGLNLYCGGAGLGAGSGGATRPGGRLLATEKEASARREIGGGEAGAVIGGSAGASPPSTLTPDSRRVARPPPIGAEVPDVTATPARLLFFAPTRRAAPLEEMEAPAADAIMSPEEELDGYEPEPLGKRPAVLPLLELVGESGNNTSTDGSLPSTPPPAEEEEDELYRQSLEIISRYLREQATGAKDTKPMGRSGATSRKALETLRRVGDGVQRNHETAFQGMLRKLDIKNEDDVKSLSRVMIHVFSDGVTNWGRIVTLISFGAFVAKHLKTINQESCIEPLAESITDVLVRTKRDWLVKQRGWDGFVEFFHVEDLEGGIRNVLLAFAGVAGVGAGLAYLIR
row,effect of a mutation on the interaction,Variant
1,with no effect,F133L

# Variants of: B1
# Conditions: with mdm2_human MDM2, Q00987
row,effect of a mutation on the interaction,Variant
1,with no effect,F133L

# Variants of: B1
# Conditions: with mef2a_human MEF2A
row,effect of a mutation on the interaction,Variant
1,with no effect,F133L

# Variants of: B1
# Conditions: with mlh1_human MLH1, P40692
# mlh1_human MLH1, P40692, sequence (P40692 whole entry): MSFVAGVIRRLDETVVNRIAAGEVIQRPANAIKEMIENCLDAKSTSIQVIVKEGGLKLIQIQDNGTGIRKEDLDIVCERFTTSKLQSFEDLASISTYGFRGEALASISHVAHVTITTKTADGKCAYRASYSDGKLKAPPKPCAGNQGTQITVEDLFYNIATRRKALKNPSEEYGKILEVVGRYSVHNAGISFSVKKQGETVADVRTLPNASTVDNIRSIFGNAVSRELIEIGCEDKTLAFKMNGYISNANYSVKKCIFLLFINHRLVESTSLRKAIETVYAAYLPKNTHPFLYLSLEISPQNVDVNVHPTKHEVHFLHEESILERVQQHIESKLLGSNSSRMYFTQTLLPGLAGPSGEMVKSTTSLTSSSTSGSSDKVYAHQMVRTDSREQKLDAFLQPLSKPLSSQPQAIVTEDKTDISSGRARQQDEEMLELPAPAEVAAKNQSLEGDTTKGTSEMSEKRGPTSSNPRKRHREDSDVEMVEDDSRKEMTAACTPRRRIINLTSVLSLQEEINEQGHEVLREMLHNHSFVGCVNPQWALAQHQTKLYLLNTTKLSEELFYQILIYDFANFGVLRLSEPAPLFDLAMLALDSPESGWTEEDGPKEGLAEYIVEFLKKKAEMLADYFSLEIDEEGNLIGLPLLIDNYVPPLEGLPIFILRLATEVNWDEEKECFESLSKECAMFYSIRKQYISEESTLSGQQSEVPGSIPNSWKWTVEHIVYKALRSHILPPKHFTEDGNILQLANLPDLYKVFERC
row,effect of a mutation on the interaction,Variant
1,with no effect,F133L

# Variants of: B1
# Conditions: with mtor_human MTOR
row,effect of a mutation on the interaction,Variant
1,with no effect,F133L

# Variants of: B1
# Conditions: with mybb_human MYBL2, P10244
row,effect of a mutation on the interaction,Variant
1,with no effect,F133L

# Variants of: B1
# Conditions: with myc_human MYC
row,effect of a mutation on the interaction,Variant
1,with no effect,F133L

# Variants of: B1
# Conditions: with mycn_human MYCN
row,effect of a mutation on the interaction,Variant
1,with no effect,F133L

# Variants of: B1
# Conditions: with ncoa3_human NCOA3, Q9Y6Q9
row,effect of a mutation on the interaction,Variant
1,with no effect,F133L

# Variants of: B1
# Conditions: with ikba_human NFKBIA
row,effect of a mutation on the interaction,Variant
1,with no effect,F133L

# Variants of: B1
# Conditions: with notc2_human NOTCH2, Q04721
# notc2_human NOTCH2, Q04721, sequence (Q04721 whole entry): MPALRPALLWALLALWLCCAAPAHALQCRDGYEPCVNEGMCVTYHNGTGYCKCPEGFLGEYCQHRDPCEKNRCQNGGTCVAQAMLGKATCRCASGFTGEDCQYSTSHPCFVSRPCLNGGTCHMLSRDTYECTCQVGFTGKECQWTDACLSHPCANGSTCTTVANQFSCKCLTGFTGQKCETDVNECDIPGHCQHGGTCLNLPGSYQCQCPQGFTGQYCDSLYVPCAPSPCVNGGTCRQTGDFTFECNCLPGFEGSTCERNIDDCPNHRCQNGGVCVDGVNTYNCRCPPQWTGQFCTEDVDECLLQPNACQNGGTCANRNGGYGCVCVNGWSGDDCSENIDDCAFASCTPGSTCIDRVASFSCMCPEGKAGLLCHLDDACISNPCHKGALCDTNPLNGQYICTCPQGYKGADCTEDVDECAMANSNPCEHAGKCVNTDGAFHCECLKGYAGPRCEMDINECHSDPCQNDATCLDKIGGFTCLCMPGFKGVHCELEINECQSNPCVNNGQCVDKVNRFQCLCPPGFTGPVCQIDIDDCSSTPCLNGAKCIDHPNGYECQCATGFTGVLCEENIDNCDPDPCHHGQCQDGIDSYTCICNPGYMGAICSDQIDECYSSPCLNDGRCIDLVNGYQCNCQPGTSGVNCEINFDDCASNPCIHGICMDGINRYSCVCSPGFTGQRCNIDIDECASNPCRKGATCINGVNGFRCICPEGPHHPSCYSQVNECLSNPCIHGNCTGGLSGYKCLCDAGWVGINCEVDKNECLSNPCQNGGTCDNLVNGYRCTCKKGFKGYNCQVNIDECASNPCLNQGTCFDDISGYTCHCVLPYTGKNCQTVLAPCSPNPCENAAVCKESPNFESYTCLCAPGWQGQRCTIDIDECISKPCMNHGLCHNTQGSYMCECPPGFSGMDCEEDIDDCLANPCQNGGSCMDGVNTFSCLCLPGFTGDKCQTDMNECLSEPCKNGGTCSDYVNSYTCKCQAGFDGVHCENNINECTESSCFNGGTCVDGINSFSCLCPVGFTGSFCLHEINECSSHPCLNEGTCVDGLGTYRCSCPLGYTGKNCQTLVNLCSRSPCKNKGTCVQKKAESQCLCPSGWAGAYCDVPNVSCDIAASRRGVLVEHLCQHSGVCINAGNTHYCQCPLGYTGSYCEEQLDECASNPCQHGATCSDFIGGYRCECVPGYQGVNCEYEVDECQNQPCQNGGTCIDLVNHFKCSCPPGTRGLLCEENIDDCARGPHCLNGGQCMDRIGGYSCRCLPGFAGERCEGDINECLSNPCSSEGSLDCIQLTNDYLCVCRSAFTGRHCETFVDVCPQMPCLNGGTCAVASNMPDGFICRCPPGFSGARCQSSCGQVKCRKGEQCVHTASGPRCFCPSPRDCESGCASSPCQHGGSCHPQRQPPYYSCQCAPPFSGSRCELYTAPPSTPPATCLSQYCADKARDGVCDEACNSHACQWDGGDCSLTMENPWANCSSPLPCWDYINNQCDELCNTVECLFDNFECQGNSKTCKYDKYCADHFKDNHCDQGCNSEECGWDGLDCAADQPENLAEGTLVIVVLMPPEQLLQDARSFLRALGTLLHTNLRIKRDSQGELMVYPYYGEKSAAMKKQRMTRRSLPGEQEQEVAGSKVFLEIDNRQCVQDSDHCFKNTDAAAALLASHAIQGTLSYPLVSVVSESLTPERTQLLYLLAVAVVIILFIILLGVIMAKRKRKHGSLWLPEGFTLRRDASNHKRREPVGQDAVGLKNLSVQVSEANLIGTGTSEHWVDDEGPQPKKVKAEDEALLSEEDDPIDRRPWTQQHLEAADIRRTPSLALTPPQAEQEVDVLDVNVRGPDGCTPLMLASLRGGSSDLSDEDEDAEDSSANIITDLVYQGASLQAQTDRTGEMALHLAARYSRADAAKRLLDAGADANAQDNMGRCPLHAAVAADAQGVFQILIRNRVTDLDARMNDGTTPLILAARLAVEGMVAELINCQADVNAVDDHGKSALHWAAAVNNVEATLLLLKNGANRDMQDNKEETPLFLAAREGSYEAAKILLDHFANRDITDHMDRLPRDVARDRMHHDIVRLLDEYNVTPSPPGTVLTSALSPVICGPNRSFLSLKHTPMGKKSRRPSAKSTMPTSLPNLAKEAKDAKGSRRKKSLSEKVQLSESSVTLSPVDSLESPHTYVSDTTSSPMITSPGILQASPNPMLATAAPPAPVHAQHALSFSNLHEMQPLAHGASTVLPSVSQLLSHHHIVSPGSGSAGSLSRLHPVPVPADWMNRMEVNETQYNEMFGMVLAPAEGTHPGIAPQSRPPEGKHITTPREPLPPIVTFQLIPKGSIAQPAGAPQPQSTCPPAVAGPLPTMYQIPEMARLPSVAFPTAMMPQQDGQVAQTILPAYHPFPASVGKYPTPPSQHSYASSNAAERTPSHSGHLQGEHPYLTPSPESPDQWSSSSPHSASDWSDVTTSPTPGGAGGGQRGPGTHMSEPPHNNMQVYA
row,effect of a mutation on the interaction,Variant
1,with no effect,F133L

# Variants of: B1
# Conditions: with nox1_human NOX1, Q9Y5S8
row,effect of a mutation on the interaction,Variant
1,with no effect,F133L

# Variants of: B1
# Conditions: with ntrk2_human NTRK2, Q16620
row,effect of a mutation on the interaction,Variant
1,with no effect,F133L

# Variants of: B1
# Conditions: with ntrk3_human NTRK3, Q16288
row,effect of a mutation on the interaction,Variant
1,with no effect,F133L

# Variants of: B1
# Conditions: with pak3_human PAK3, O75914
# pak3_human PAK3, O75914, sequence (O75914 whole entry, looked up): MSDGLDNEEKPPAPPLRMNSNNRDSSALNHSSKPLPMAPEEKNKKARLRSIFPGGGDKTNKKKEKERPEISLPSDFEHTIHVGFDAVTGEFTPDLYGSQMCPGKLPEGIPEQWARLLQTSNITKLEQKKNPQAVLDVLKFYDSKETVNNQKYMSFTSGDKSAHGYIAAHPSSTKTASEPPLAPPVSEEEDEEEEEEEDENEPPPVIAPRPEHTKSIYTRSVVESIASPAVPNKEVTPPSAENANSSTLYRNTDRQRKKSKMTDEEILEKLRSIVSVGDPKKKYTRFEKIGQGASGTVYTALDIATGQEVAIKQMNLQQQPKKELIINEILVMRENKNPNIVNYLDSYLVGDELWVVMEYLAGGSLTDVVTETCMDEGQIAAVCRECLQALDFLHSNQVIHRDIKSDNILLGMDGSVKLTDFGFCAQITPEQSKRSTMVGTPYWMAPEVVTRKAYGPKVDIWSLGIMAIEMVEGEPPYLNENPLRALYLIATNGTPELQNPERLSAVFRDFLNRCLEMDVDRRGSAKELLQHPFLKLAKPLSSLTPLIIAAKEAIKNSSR
row,effect of a mutation on the interaction,Variant
1,with no effect,F133L

# Variants of: B1
# Conditions: with prkn_human PRKN
row,effect of a mutation on the interaction,Variant
1,with no effect,F133L

# Variants of: B1
# Conditions: with pax5_human PAX5, Q02548
row,effect of a mutation on the interaction,Variant
1,with no effect,F133L

# Variants of: B1
# Conditions: with pcbp1_human PCBP1, Q15365
row,effect of a mutation on the interaction,Variant
1,with no effect,F133L

# Variants of: B1
# Conditions: with pdcd1_human PDCD1, Q15116
row,effect of a mutation on the interaction,Variant
1,with no effect,F133L

# Variants of: B1
# Conditions: with pgfrb_human PDGFRB
row,effect of a mutation on the interaction,Variant
1,with no effect,F133L

# Variants of: B1
# Conditions: with pdk1_human PDK1, Q15118
# pdk1_human PDK1, Q15118, sequence (Q15118 whole entry, looked up): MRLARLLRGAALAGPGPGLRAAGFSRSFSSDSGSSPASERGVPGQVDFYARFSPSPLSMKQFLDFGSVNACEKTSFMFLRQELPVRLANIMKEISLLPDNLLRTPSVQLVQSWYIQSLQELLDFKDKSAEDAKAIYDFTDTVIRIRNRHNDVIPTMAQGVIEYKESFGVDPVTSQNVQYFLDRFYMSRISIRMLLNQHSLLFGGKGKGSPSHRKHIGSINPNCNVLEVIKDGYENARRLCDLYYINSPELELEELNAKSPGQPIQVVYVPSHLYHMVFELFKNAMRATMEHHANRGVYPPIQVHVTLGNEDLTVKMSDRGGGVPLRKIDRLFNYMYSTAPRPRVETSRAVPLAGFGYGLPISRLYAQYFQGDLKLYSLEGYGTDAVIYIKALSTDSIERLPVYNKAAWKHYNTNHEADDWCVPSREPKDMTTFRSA
row,effect of a mutation on the interaction,Variant
1,with no effect,F133L

# Source: IntAct's records for PubMed 35512704
